Assay [1] deals with MDA-MB-231 cancer cell line. Nature of the assay: Apoptosis by annexin V/propodium iodide flow cytometry. Type of assay: cell-based, human. Conditions: MDA-MB-231, 24 h, annexin V/PI.
For assay [2], the target named is XIAP BIR3-only protein (residues 241–356) (human) (UniProt P98170). The assay can be described thus: fluorescence polarisation. In general terms: In fluorescence polarisation assays a small probe gives low polarisation when free and higher when bound to something large.
Assay [3] has as its target XIAP BIR2-only protein (residues 120–240) (human) (UniProt P98170). Nature of the assay: fluorescence polarisation.
The target of assay [4] is XIAP linker–BIR2–BIR3 protein (residues 120–356) (human) (UniProt P98170). Nature of the assay: fluorescence polarisation.

We go through 2 compounds from article PMC2784912 (Biochemistry, 2008).

`COC(=O)CC[C@H](NC(=O)[C@H](CC(=O)OC)NC(=O)OCc1ccccc1)C(=O)N[C@H](C(=O)N[C@@H](CC(=O)OC)C(=O)CF)C(C)C` [Z-DEVD-FMK]: in assay [1], the induction of apoptosis result is “no effect on cells”.
A word on the Ki: it is a measure of affinity in units of concentration, obtained from inhibition or displacement. With “compound 2 (monovalent Smac mimetic, N-methyl-AKPF) (peptide)”, the inhibition constant Ki in assay [2] turned out to be 86 nM; in assay [3], 11700 nM; in assay [4], 900 nM.
